Test results as given in the supplement of paper PMC9170038.

Test system: MS2 coat protein
Assay: apparent KD of MS2 coat protein; higher = weaker reporter binding
Settings: Eterna round: R107
Method in brief: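 On-chip transcription from Illumina sequencing clusters produced the designed RNA switches. These were titrated with SNAP-549-labelled MS2 coat protein (twofold steps, 0.7 or 1.5 nM to 3 µM) in 100 mM Tris-HCl pH 7.5, 80 mM KCl, 4 mM MgCl2, with or without constant ligand. The apparent KD given is the per-design median of normalised cluster binding-curve fits.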

[1] = input ligand: theophylline 20 uM
[2] = input ligand: theophylline 2 mM
[3] = input ligand: tryptophan 2.4 mM

| Sequence | apparent KD of MS2 coat protein (input ligand: arginine 13.2 mM) | apparent KD of MS2 coat protein (input ligand: none) | apparent KD of MS2 coat protein [1] | apparent KD of MS2 coat protein [2] | apparent KD of MS2 coat protein [3] |
| --- | --- | --- | --- | --- | --- |
| GCUGCUUUGGGAAGGAGCGCUGCGGUAUUGUGGCGGACAUGAGGAUCACCCAUGUGCCUGCAGCAGGUAGGUCGCUUAGGGCAGC [EAP NP+V+V2 #17] | 54 nM | 68.8 nM | 92 nM | 79.8 nM | 58.4 nM |
| GCUGUACCAUGAAGGAGCGCUUUAAUUAUAGAAGAUACAUGAGGAUCACCCAUGUUCCUCGAGCAGGUAGGUCGCAUGGUACAGC [SSAB #18] | 25.4 nM | 20.3 nM | 33 nM | 27 nM | 22.9 nM |
| GGACAUGCAGGAAGGAGCGACACGCAGAAACUGCAAAAUCCUCCACACGAGGAUCACCCGUGUCAGGUAGGUCGCCUGCAUGUCG [ArgXB 15 #Zipper #MS2Left #StaticStem #Blueprint] | 88.8 nM | 73.3 nM | 140 nM | 127 nM | 110 nM |
| GGACUAACCAGAAGGAGCGACACAAGCAGAAACUGCAAUCCUCCGCACGAGGAUCACCCGUGUCAGGUAGGUCGCUGGUUAGUCG [ArgBX 28] | 57.5 nM | 63.7 nM | 96.8 nM | 96.8 nM | 67.4 nM |
| GGACUAACCUGAAGGAGCGGCGCGCAGAAACUGCAAAUUCCUCCACACGAGGAUCACCCGUGUCAGGUAGGUCGCAGGUUAGUCG [ArgBX 28] | 11.5 nM | 12.1 nM | 16.6 nM | 12.6 nM | 12.7 nM |
| GGAGCUACGUCGGCCGCCACUAGCGGAUAUUACGUGUACAUGAGGAUCACCCAUGUAAUACGGUUUAGGACCGGGACGUAGCUCC [Lizard] | 15.6 nM | – | 22.4 nM | 20.6 nM | – |
| GGAGCUACGUCGGCCGCCACUAGCGGGUAUUGCGUGUACAUGAGGAUCACCCAUGUAAUACGGCCUAGGACCGGGACGUAGCUCC [Raven] | 12.1 nM | – | 19.1 nM | 14.5 nM | 13.8 nM |
| GGAUAGGACAGAAGGAGCGUGAGAUGCAAAGCUUCAUUCCUCACAUGAGGAUCACCCAUGUCACAGGUAGGUCGCUGUCCUAUCG [#19 Exclusion - Arginine B] | 78.6 nM | 102 nM | 106 nM | 111 nM | 78.9 nM |
| GGCACGUACGGAAGGAGCGACUGUUCAACGUGGGUACAUGAGGAUCACCCAUGUCUCCGCAGUCAGGUAGGUCGCCGUACGUGCC [EAB NP+V+V2 #20] | 15 nM | 12.2 nM | 19.8 nM | 13.2 nM | 10.7 nM |
| GGCCAUGGAAACAUGGCGGCGGCGUAUGCGCGAGGACCGGUACGGCCGCCACUCGGGCGACAUGAGGAUCACCCAUGUUCCUCAU [ETA NP+V+V2 #25] | 127 nM | – | 243 nM | 275 nM | – |
| GGCGCGAGCCAACAUGAGGAUCACCCAUGUCGAGGACCGGUACGGCCGCCACUCGAACGAGUGAAGCGCGCGCGCGCGCGCGCGC [Uaa] | 32.4 nM | 61.5 nM | 106 nM | 68.8 nM | 167 nM |
| GGCGCUGCGUCGGCCGCCACUAGUGGGUAAUGGGUGUACAUGAGGAUCACCCAUGUAUUUUGGCCUAGGACCGGGACGUGGCGCC [Oxen] | 81.9 nM | – | 455 nM | 570 nM | – |
| GGGACACCGGGAAGGAGCGCAUCCAAACCACACAUGAGGAUCACCCAUGUAUAAAUAUGCAUGCAGGUAGGUCGCCCGAUGUCUC [Anrearradi] | 60.9 nM | 90.7 nM | 121 nM | 120 nM | 110 nM |
| GGGACAUCGGGAAGGAGCGCAUCCAAACCACACAUGAGGAUCACCCAUGUAUAAAUAUGCAUGCAGGUAGGUCGCCCGGUGUCUC [Ersoatus] | 79.5 nM | 104 nM | 131 nM | 117 nM | 121 nM |
| GGGAGAUGAAAAGAUUGAGCUAAAACAGAAGGAGCGUGAAUUAACACAGGUAGGUCGCUGACAACAUGAGGAUCACCCAUGUAUU [Same State Arginine A GF4] | 24.9 nM | 19.6 nM | 30.4 nM | 26.5 nM | 21.4 nM |
| GGGCCUAUCUGAAGGAGCGACAUGAGGAUCACCCAUGUCUCCCGUUAUGGGAGUUCUUUAGGUCAGGUAGGUCGCAGGUAGGGCC [#1 Exclusion - Arginine B Attempt #5 (Inspired by Omei)] | 12.2 nM | 14.7 nM | 19 nM | 15.2 nM | 15 nM |
| GGGCGAGUGGAGCGGCGUGCUCCGCUCCGUCGAGGACCGGUACGGCCGCCACUCGACAUGAGGAUCACCCAUGUGCGAGCUCGCG [#1 Exclusion - Tryptophan A Attempt #13 (HarryS)] | 7.39 nM | 17.6 nM | 27.1 nM | 58.6 nM | 180 nM |
| GGGCGCGUGGACUGGCGUGCUCCGCUCCGUCGAGGACCGGUACGGCCGCCACUCGACAUGAGGAUCACCCAUGUGUGAGCUCGCG [#1 Exclusion - Tryptophan A Attempt #17 (HarryS)] | 62.9 nM | – | 229 nM | 259 nM | – |
